Laboratory results published in paper PMC9359109.

Experiments:
[1] = target: HLA-B*27:05 class I heavy chain (HC), V5 tagged (human); test: non-reducing two-dimensional isoelectric focusing gel electrophoresis and immunoblot of immunoprecipitates; anti-tapasin immunoprecipitates resolved by charge and then by non-reducing SDS-PAGE, immunoblot with anti-V5
[2] = target: HLA-B*27:05 class I heavy chain (HC), V5 tagged (human); test: non-reducing two-dimensional isoelectric focusing gel electrophoresis and immunoblot; 1% NP40 lysates resolved by charge in the first dimension and by non-reducing SDS-PAGE in the second, immunoblot with anti-V5; monomers and dimers compared by pI
[3] = target: HLA-B*27:05 single chain trimer (SCT): NP 383-391 peptide - linker - human beta-2 microglobulin - linker - HLA-B*27:05 heavy chain - V5 (influenza virus | human); test: non-reducing two-dimensional isoelectric focusing gel electrophoresis and immunoblot of immunoprecipitates; anti-tapasin immunoprecipitates resolved by charge and then by non-reducing SDS-PAGE, immunoblot with anti-V5
[4] = target: HLA-B*27:05 single chain trimer (SCT): NP 383-391 peptide - linker - human beta-2 microglobulin - linker - HLA-B*27:05 heavy chain - V5 (influenza virus | human); test: non-reducing two-dimensional isoelectric focusing gel electrophoresis and immunoblot; 1% NP40 lysates resolved by charge in the first dimension and by non-reducing SDS-PAGE in the second, immunoblot with anti-V5; monomers and dimers compared by pI

Row | Substance | stoichiometry N [1] | stoichiometry N [2] | stoichiometry N [3] | stoichiometry N [4]
1 | HLA-B*27:05 class I heavy chain (HC), V5 tagged (natural protein) | 2 | 2 | – | –
2 | HLA-B*27:05 single chain trimer (SCT): NP 383-391 peptide - linker - human beta-2 microglobulin - linker - HLA-B*27:05 heavy chain - V5 (from UniProt P61769 21-119) (peptide-MHC) | – | – | 2 | 2
